Molecular target: Drosophila Slit D1-4 (the four leucine-rich repeat domains) (Drosophila)
Assay: ELISA

Chain of Drosophila Slit D1-4 (the four leucine-rich repeat domains) (Drosophila) (P24014 64-922): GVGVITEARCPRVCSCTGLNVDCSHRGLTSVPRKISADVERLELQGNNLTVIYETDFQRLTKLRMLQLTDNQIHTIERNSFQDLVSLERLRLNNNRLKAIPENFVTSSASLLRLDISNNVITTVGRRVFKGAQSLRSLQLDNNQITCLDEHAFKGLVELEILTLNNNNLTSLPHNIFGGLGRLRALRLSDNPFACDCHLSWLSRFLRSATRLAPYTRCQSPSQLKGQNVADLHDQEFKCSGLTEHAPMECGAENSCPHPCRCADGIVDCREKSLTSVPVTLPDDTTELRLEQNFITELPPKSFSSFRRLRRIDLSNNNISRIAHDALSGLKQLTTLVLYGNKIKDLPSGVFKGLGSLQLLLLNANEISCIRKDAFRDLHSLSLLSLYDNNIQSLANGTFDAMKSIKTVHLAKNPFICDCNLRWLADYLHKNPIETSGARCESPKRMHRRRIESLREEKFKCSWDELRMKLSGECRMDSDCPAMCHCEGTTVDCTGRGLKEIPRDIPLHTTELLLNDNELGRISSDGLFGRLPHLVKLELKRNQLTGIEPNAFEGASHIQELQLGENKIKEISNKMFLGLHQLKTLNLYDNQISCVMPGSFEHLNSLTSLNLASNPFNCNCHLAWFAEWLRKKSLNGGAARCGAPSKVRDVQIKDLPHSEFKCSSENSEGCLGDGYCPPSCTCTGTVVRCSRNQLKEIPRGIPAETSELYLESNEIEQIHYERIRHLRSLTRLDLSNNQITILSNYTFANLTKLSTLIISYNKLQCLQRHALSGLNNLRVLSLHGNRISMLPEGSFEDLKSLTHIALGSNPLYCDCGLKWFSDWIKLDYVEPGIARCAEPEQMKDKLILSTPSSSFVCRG

Drosophila Robo IG1–5 Fc (Fc fusion)
fold increase of the apparent affinity with 10 μg/ml heparin against no heparin: > 10 fold
